Data reported in the DeepSol protein solubility set.

test: soluble on expression in E. coli; label from the status in PepcDB or PDB records

Row | Sequence | soluble on expression in E. coli
1 | MGSDKIHHHHHHMSYSLQKSMVAKVVGLSLVMLLAACSSDQRYKRQVSGDESYLKAPAQHVLNTPAGMILPVQNGDFDIPPVTLNGAVGKELDIRPPVQPLALLNGSRTQTSGDTATLLLENSAQNSQIWSQVIRVLQDNAFTIANRQDASQTLTTDWISWPREDENVPYQGRYQISVQQQGYQVALIVKLLGLQLNGQPVTTSDQTQRYAGLMLNVLSNGLDSQATARENALANRTIGSLDVQSGADDTGLPLLIVRGPYTVVWDRLPVALDKIGMKVNDRSRPQGSVSVTYRAPSGGTWDDLGAKNPELPNGDYKLQVGDLDNRSSLQFIDSKGHTLTQSQNDALVAVFQAAFSK | not soluble
2 | MHKLLYTCNLRCRMCPFWRRKDEKLLSLEEEVLMLKSLEKAGVLFMGFEGGEPLLRRDLEDILEESYKRFYTSLVTNGWLLKDRAKSISNYLDYLFVSIDGIGEVHDKIRGISGAFERAVEGIKEARKYLPVAISFTITKENMDQVKDVIELA | soluble
3 | MQKELFRQSPDSNKLILFFNGWAMTREAVSHLAIPPEYDLLHVWDYRTDTLHFDWSPYREICLSAWSMGVWAAERLSREGRLPSVVSAVAICGTGYPMDDTMGIPLDIFRGTLDGLTEENRLRFNRRMCGGKSLKHLLEALAARETDEIKAELGRVYEEEEKRLKSDDPHPVAPLSWDKALIGAKDRIIPAKNQQAFWQMRGCRNIETVAEGDHYLFNRFTEWEQLWS | not soluble
4 | MGSDKIHHHHHHMVNNMTDLTAQDAAWSTRDHLDDPVIGELRNRFGPDAFTVQATRTGIPVVWVKREQLLEVGDFLKKLPKPYVMLFDLHGMDERLRTHRDGLPAADFSVFYHLISIERNRDIMLKVALSENDLRVPTFTKLFPNANWYERETWEMFGIDIEGHPHLTRIMMPQTWEGHPLRKDYPARATEFDPFELTKAKQDLEMEALTFKPEDWGMKRGTDNEDFMFLNLGPNHPSAHGAFRIILQLDGEEIVDCVPDIGYHHRGAEKMGERQSWHSYIPYTDRIEYLGGCVNEMPYVLAVEKLAGITVPDRVNVIRVMLSELFRINSHLLYISTFIQDVGAMTPVFFAFTDRQKIYDLVEAITGFRMHPAWFRIGGVAHDLPRGWDRLLREFLEWMPKRLDSYEKAALRNTILKGRSQGVAAYGAKEALEWGTTGAGLRATGIDFDVRKWRPYSGYENFDFEVPVGGGVSDCYTRVMLKVEELRQSLRILQQCLDNMPEGPFKADHPLTTPPPKERTLQHIETLITHFLQVSWGPVMPAQESFQMVEATKGINSYYLTSDGSTMSYRTRVRTPSFAHLQQIPSAIRGSLVSDLIVYLGSIDFVMSDVDR | not soluble
5 | MAHHHHHHMGVPTMERSHGRRSPDEVRYPHIVLNVLGQSYSSACIEVGSTRVVCAVHHPQQLIDEYRGSRGRVACTVRRSSRAQKHELAFRADVTPEKDLALALEGVVEQAVVLEKIPQLLVEVAVEILAEDGGLWDAIATGVCAALASGGFEMYDTFSACGAALLPDGSIVTDPSATEWNTAKATAVTCAMLNSGNMCFTAQRGSCEPTTALDLVMAALKGTLARKNVISSQLCEQFAF | not soluble
6 | MRLDLENLVETPSNEIAGFYEGLVEALPSLEGHYCSPGCRGGFLMRVREGTMMGHIVEHVALELQELAGMHVGFGRTRETATPGVYQVVIEYINEEAGRYAGRAAVRLCQSIVDRGRYPKAELEQDIQDLKDFSREASLGPSTEAIIKEAEKRGIPWMPLAARFLIQLGYGVNQKRMQATMTDNTGILGVELACDKEATKRILAANGVPVPRGTVINFLDDLEESIEYVGGYPIVIKPLDGNHGRGITIDIRSWDEAEAAYEAARQVSRSIIVERYYVGRDHRVLVVDGKVVAVAERVPAHVIGNGRSSIAELITETNQDPNRGEGHDNVLTKIELDRTSYQLLERQGYTLNSVPPKGTICYLRATANLSTGGSAVDRTDEIHPENVWLAQRVVRIIGLDIAGLDIVTTDISRPLRDVDGVIVEVNAAPGFRMHVAPSQGIPRNVAGAVMDMLFPNEKPSRIPILTVTGTNGKTTTTRLLAHIYRQTKKVVGYTTTDGTYIGDYLVEAGDNTGPQSAHVILQDPTVEVAVLESARGGILRSGLGFESANVGVVLNVAADHLGIGDIDTIEQLANLKSVVAEAVFPDGYAVLNADDHRVAAMSEKTKANIAYFTMNPDSDLVRKHIQKGGVAAVYENGYLSIVKGDWTHRIERAENIPLTMGGKAPFMIANALAASLAAFVQNVTIEQIRPGLRTFRASVSQTPGRMNLFNLGKYHALVDYAHNPASYEALGSFVRNWTTGQRIGVIGGPGDRRDEDFVTLGKLSADIFDYILVKEDDDTRGRLRGSASDLIIQGITQVKPNSRFESILDETQAINKALDMAPDGSLVVILPESVNRAIKLIKVRGVQEEIQPQNSTTTINDSQNGVAPSSVVNTLL | not soluble
7 | MEALDLLLNRRSIAKLDAPAPQNEALDNILRAGLRAPDHGALTPWRFVVAQGEGLAKLAAILEQAEIANGSDEAVISKAKNAPFRAPMVITVIAKVTHSEKIPAFEQHLSAGCAVQAMQMAAIAQGFQGIWRSGSWMFHPVVRRAFNVQGEDHIVGFLYLGTPGTTAAKVPERELSKYVEYL | not soluble
8 | MEHVAFGSEDIENTLAKMDDGQLDGLAFGAIQLDGDGNILQYNAAEGDITSRDPKQVIGKNFFKDVAPCTDSPEFYGKFKEGVASGNLNTMFEYTFDYQMTPTKVKVHMKKALSGDSYWVFVKRV | soluble
9 | DLREVLDFMLKDEVSKLRKLLVKIKTKKIAEVEYENVVKALKLFKDNYEINEYLMDENTKEFLIKRNILFLNPVEEILKPQSYLVWNAIKRVLQNINDF | soluble
10 | MAPHGDGLSDIEEPEVDAQSEILRPISSVVFVIAMQAEALPLVNKFGLSETTDSPLGKGLPWVLYHGVHKDLRINVVCPGRDAALGIDSVGTVPASLITFASIQALKPDIIINAGTCGGFKVKGANIGDVFLVSDVVFHDRRIPIPMFDLYGVGLRQAFSTPNLLKELNLKIGRLSTGDSLDMSTQDETLIIANDATLKDMEGAAVAYVADLLKIPVVFLKAVTDLVDGDKPTAEEFLQNLTVVTAALEGTATKVINFINGRNLSDL | soluble
11 | MGHHHHHHSHMFTMLCINGTTPRPLPVPSPFGCMIFFFFKNPWKQCLLQGWLGARPIHLLGYLPLSLLWCPFPLPCARCSVVYISSPRHGAHAPRDMILSLVLAHGALYKELGGRGRKWEPS | not soluble
12 | MSLAEFSADLCLFDLDGTIVSTTVAAEKAWTKLCYEYGVDPSELFKHSHGARTQEVLRRFFPKLDDTDNKGVLALEKDIAHSYLDTVSLIPGAENLLLSLDVDTETQKKLPERKWAIVTSGSPYLAFSWFETILKNVGKPKVFITGFDVKNGKPDPEGYSRARDLLRQDLQLTGKQDLKYVVFEDAPVGIKAGKAMGAITVGITSSYDKSVLFDAGADYVVCDLTQVSVVKNNENGIVIQVNNPLTRAEGHHHHHH | not soluble
13 | VGLIEKQKVQDSDFIEHKEVGLLISHDGIYFKFEPEQLAKHLVEFKSEQDQLIFGGVVQNSDYFFMVTSLGNIITVPIYKTLSNTKTKMNELLAKKPILMEDEKLVLAGIVNPDKME | soluble
14 | MSLRSTLAGTVRTQQGEIYLNGDADWSQIENWRARVTAKGSKVRITVPPMVRMDVSPDVVFEATPNLFTLDGRVDVPWARIVVHDLPESAVGVSSDVVMLNDNLQPEEPKTASIPINSNLIVHVGNNVRIDAFGLKARLTGDLNVVQDKQGLGLNGQINIPEGRFHAYGQDLIVRKGELLFSGPPDQPYLNIEAIRNPDATEDDVIAGVRVTGLADEPKAEIFSDPAMSQQAALSYLLRGQGLESDQSDSAAMTSMLIGLGVAQSGQIVGKIGETFGVSNLALDTQGVGDSSQVVVSGYVLPGLQVKYGVGIFDSIATLTLRYRLMPKLYLEAVSGVDQALDLLYQFEFEGHHHHHH | soluble
15 | MQYVKIKDSIVEQIEAGMLSPRQKLPAERKLAESFDTTRVTLREALSLLEAEGRIYREDRRGWFISPEPLRYDPTQTLNFPNMAKAQNRVPKTELIAAKGTLANKQSARLLQLQPFSDVFRVDRVRYLEDRPVVYVTNYIRPEIFPNLLSFDLTNSLTDIYREHFGVVYQKTRYRISTSTLLGEVAQALRATSGTPAMVVERTNYNQHGELIDCDIEYWRHDAISIESVAELNQ | not soluble
16 | MYVLIGGAGLVGLTLAQKLVELGHTVAIIDVDHTACRYAREQVGAMAFEGSAVSTEVLLEAGIRKADALAAVLRNDALNLAMVMLAKHYGVSHILSRMRHADFAQPLRLAGANHVISTVELSVSTMVNAIEYPQVESMMHFEQGQIEVLKISIPNSCYVANRSLAEIAQDSRFPSGSLIIGYQPHPHEDLVIPNGSTVLESGSTILIATKPGSLHQVIDFIEGCKLEHHHHHH | not soluble
17 | MELFELFILDANGVPRGKLLHRDELLAVYRSGRPLPSTILGLTMNGEDVEDSGLVWDVGDIDCRAYPLSGSLVRLPWRQIPTAAVQVSMHPSEGLPASVADPRHLLVRTIDALKSEGYHPVMAAELEFYLLDRERDANGRPQPARDADGGRPRATQVYGLRELEQIEPFLADLYAACKAQGLPARTAISEYAPGQVEITLDHGDALAAMDQAIRYKRLVKGIAHKHGMLACFMAKPFDDLAGTGMHLHVSLADEQGHNLFASDDPAGTPLLRQAVGGMLASLLDSLLLFCPNANSYRRFQANSYAPLAQTWGVDNRTVSLRVPGGPASSRHIEHRICGADANPYLAAAALLAGVHRGIREGIDPGAPVEGNGYAQAGKRLPTDWLTALDTLQGSEWAREAFGEPFLGVYLAVKRAEYRQFMGEVGEQDWRWYL | not soluble
18 | SASNYPAYMDNYLKEVINQVEEETGYNLLTTGMDVYTNVDQEAQKHLWDIYNTDEYVAYPDDELQVASTIVDVSNGKVIAQLGARHQSSNVSFGINQAVETNRDWGSTMKPITDYAPALEYGVYDSTATIVHDEPYNYPGTNTPVYNWDRGYFGNITLQYALQQSRNVPAVETLNKVGLNRAKTFLNGLGIDYPSIHYSNAISSNTTESDKKYGASSEKMAAAYAAFANGGTYYKPMYIHKVVFSDGSEKEFSNVGTRAMKETTAYMMTDMMKTVLSYGTGQNAYLAWLPQAGKTGTSNYTDEEIENHIKTSQFVAPDELFAGYTRKYSMAVWTGYSNRLTPLVGNGLTVAAKVYRSMMTYLSEGSNPEDWNIPEGLYRNGEFVFKNGAR | soluble
19 | MSDVSTSVQSKFARLAKKKENITYMKREQLTETDKDIAPVLDLKCKDVSAIMNKFKVLMEIQDLMFEEMRETLKNDLKAVLGGKATIPEVKNSENSSSRTEFQQIINLALQKTGMVGKIEGENSKIGDDNENLTFKLEVNELSGKLDNTNEYNSNDGKKLPQGESRSYEVMGSMEETLCNIDDRDGNRNVHLEFTERESRKDGEDEFVKEMREERKFQKLKNKEEVLKASREEKVLMDEGAVLTLAADLSSATLDISKQWSNVFNILRENDFEPKFLCEVKLAFKCDGEIKTFSDLQSLRKFASQKSSMKELLKDVLPQKEEINQGGRNYGIQEKRDKTLIDSKHRAGEITSDGLSFLFLKEVKVAKPEEMKNLETQEEEFSELEELDEEASGMEDDEDTSGLEEEEEEPSGLEEEEEEEASGLEEDEASGLEEEEEQTSEQDSTFQGHTLVDAKHEVEITSDGMETTFIDSVEDSESEEEEEGKSSETGKVKTTSLTEKKASRRQKEIPFSYLVGDSGKKKLVKHQVVHKTQEEEETAVPTSQGTGTPCLTLCLASPSKSLEMSHDEHKKHSHTNLSISTGVTKLKKTEEKKHRTLHTEELTSKEADLTEETEENLRSSVINSIREIKEEIGNLKSSHSGVLEIENSVDDLSSRMDILEERIDSLEDQIEEFSKDTMQMTKQIISKERQRDIEERSRSCNIRLIGIPEKESYENRAEDIIKEIIDENFAELKKGSSLEIVSACRVPSKIDEKRLTPRHILVKFWNSSDKEKIIRASRERREITYQGTRIRLTADLSLDTLDARSKWSNVFKVLLEKGFNPRILYPAKMAFDFRGKTKVFLSIEEFRDYVLHMPTLRELLGNNIP | soluble
